Experimental data from patent US7105166 (Bristol-Myers Squibb, dated 2006).

B1: B7 antigen (B7-1, CD80) expressed on cells (ligand, human, UniProt P33681 35-288, looked up)
chain: VIHVTKEVKEVATLSCGHNVSVEELAQTRIYWQKEKKMVLTMMSGDMNIWPEYKNRTIFDITNNLSIVILALRPSDEGTYECVVLKYEKDAFKREHLAEVTLSVKADFPTPSISDFEIPTSNIRRIICSTSGGFPEPHLSWLENGEELNAINTTVSQDPETELYAVSSKLDFNMTTNHSFMCLIKYGHLRVNQTFNWNTTKQEHFPDNLLPSWAITLISVNGIFVICCLTYCFAPRCRERRRNERLRRESVRPV
notes: whole, on cells; Stably transfected CHO cells; in the MLR and IgM assays the B7 antigen of the stimulating B cells; also called B7^+ CHO cells; B7-1 positive CHO cells

What was measured:
[1] = molecular target: B1; experiment: B7-1+ CHO cell enzyme immunoassay; binding activity relative to CTLA4Ig, from the concentrations giving the same A450
[2] = molecular target: B1; experiment: enzyme immunoassay on fixed B7-1+ CHO cells
CD5Ig [3] = molecular target: T1, CD5Ig (human, UniProt P06127 25-371; P01857 99-330 = IgG part); experiment: indirect immunofluorescence, FACS, transfected COS cells, FITC anti-mouse and anti-human Ig second step
T1 construct: range 1-347;domain: hinge, CH2 and CH3 regions; Control fusion protein; also called control CD5Ig fusion protein
Protocol: Immunostaining and FACS^R Analysis. Prior to staining, COS or CHO cells were removed from their culture vessels by incubation in PBS containing 10 mM EDTA. Cells were first incubated with mAbs or Ig fusion proteins at 10 micro grams/ml in DMEM containing 10% FBS for 1–2 hr at 4 degrees C. Cells were then washed, and incubated for an additional 0.5–2 hrs at 4 degrees C. with FITC-conjugated goat anti-mouse immunoglobulin or with FITC-conjugated goat anti-human IgCγ serum (both from Tago, Burlingame, Calif.). When binding of both mAbs and Ig fusion proteins were measured in the same experiment, FITC-conjugated anti-mouse and anti-human second step reagents were mixed together before use. Fluorescence on a total of 10,000 cells was then analyzed by FACS^R.
Cells were then washed and binding was detected by a mixture of FITC-conjugated goat anti-mouse Ig and FITC-conjugated goat anti-human Ig second step reagents. Transfected cells were tested for expression of the appropriate cell surface markers by indirect immunostaining and fluorescence was measured using FACS^R analysis as described above.

CD5Ig [4] = molecular target: T1, CD5Ig; experiment: indirect immunofluorescence, FACS, FITC goat anti-human Ig second step
Protocol: Prior to staining, COS or CHO cells were removed from their culture vessels by incubation in PBS containing 10 mM EDTA. Cells were first incubated with mAbs or Ig fusion proteins at 10 micro grams/ml in DMEM containing 10% FBS for 1–2 hr at 4 degrees C. Cells were then washed, and incubated for an additional 0.5–2 hrs at 4 degrees C. with FITC-conjugated goat anti-mouse immunoglobulin or with FITC-conjugated goat anti-human IgCγ serum (both from Tago, Burlingame, Calif.). When binding of both mAbs and Ig fusion proteins were measured in the same experiment, FITC-conjugated anti-mouse and anti-human second step reagents were mixed together before use. Fluorescence on a total of 10,000 cells was then analyzed by FACS^R.
Binding was detected by FACS^R following addition of FITC-conjugated goat anti-human Ig second step reagents. A total of 10,000 stained cells were analyzed by FACS^R.

T1 sequence (P06127 other isoform, or with tags, fused parts or gaps limits assumed): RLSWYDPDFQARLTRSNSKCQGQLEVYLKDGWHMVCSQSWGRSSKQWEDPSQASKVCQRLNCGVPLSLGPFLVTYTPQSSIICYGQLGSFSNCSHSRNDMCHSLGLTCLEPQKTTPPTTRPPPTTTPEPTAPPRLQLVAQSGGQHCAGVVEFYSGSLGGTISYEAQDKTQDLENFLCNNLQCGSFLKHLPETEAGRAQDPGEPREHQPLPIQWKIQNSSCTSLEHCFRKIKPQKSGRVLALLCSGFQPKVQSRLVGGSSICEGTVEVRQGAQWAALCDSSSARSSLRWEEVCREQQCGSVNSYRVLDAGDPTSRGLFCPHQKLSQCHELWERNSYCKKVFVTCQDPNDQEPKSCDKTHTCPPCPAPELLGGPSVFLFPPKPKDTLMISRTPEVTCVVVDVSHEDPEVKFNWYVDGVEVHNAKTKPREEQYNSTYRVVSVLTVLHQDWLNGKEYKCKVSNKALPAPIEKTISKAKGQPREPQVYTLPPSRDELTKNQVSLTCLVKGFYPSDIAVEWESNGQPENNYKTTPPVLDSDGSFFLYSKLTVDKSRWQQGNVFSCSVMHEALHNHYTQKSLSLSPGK

% B7 binding activity [1]	Binder	further results
< 0.1%	CTLA4/CD28Ig hybrid fusion protein HS1 (Fc fusion, not shown: a dimerising Fc or GST, mature numbering, not counted on the entries) NKILVKQSPMLVAYDNAYNLSCKYASPGKATEVRVTVLRQADSQVTEVCAATYMMGNELTFLDDSICTGTSSGNQVNLTIQGLRAMDTGLYICKVEVMYPPPYLDNEKSNGTIIHVKGKHLCPS	
16%	CTLA4/CD28Ig hybrid fusion protein HS4 (Fc fusion, not shown: a dimerising Fc or GST, mature numbering, not counted on the entries) NKILVKQSPMLVAYDNAYNLSCKYSYNLFSREFRASLHKGLDSAVEVCVVYGNYSQQLQVYSKTGFNCDGKLGNESVTFYLQNLYVNQTDIYFCKIELMYPPPYYLGIGNGTQIYVIDPEPCPDSD	fold less binding than wild type CTLA4Ig [2]: ~5 fold; increase in binding relative to CD28Ig [2]: ~2.5 orders of magnitude
20%	CTLA4/CD28Ig hybrid fusion protein HS6 (Fc fusion, not shown: a dimerising Fc or GST, mature numbering, not counted on the entries) MHVAQPAVVLASSRGIASFVCEYSYNLFSREVRVTVLRQADSQVTEVCAATYMMGNELTFLDDSICTGTSSGNQVNLTIQGLRAMDTGLYICKVELMYPPPYYLGIGNGTQIYVIDPEPCPDSD	
	CD7 expressed on transfected COS cells (receptor, UniProt P09564 26-240, looked up, whole, on cells; Control transfectant; also called CD7-transfected COS cells) AQEVQQSPHCTTVPVGASVNITCSTSGGLRGIYLRQLGPQPQDIIYYEDGVVPTTDRRFRGRIDFSGSQDNLTITMHRLQLSDTGTYTCQAITEVNVYGSGTLVLVTEEQSQGWHRCSDAPPRASALPAPPTGSALPDPQTASALPDPPAASALPAALAVISFLLGLGLGVACVLARTQIKKLCSWRDKNSAACVVYEDMSHSRCNTLSSPNQYQ	binding result (CD5Ig [3]): no binding (tested: 10 µg/ml (from the text))
	B1	binding result (CD5Ig [4]): no binding (tested: 10 µg/ml (from the text))
27%	CTLA4/CD28Ig hybrid fusion protein HS2 (Fc fusion, not shown: a dimerising Fc or GST, mature numbering, not counted on the entries) MHVAQPAVVLASSRGIASFVCKYSYNLFSREFRASLHKGLDSAVEVCVVYGNYSQQLQVYSKTGFNCDGKLGNESVTFYLQNLYVNQTDIYFCKIELMYPPPYYLGIGNGTQIYVIDPEPCPDSD	
< 0.1%	CTLA4/CD28Ig hybrid fusion protein HS3 (Fc fusion, not shown: a dimerising Fc or GST, mature numbering, not counted on the entries) MHVAQPAVVLASSRGIASFVCEYASPGKATEVRVTVLRQADSQVTEVCAATYMMGNELTFLDDSICTGTSSGNQVNLTIQGLRAMDTGLYICKVEVMYPPPYLDNEKSNGTIIHVKGKHLCPS	
2%	CTLA4/CD28Ig hybrid fusion protein HS4-A (Fc fusion, not shown: a dimerising Fc or GST, mature numbering, not counted on the entries) NKILVKQSPMLVAYDNAYNLSCKYSYNLFSREFRASLHKGLDSAVEVCVVYGNYSQQLQVYSKTGFNCDGKLGNESVTFYLQNLYVNQTDIYFCKIELMYPPPYYLGIGNGTQIHVKGKHLCPS	% of wild type binding [2]: ~2%
